Source: patent EP2210617A1
One block for each binder: values may come before it.

What was measured:
[1] = target: GFRα2/Fc fusion protein (R&D Systems) (human); experiment: GFRα2 ELISA (GFRα2/Fc on anti-Fc plate, Ret-AP detection) on conditioned medium of transfected HEK293 cells; reference is medium of wt NTN transfected cells
[2] = target: GFRα2/Fc fusion protein (R&D Systems) (human); experiment: GFRα2 ELISA (GFRα2/Fc on anti-Fc plate, Ret-AP detection) on conditioned medium of transfected ARPE-19 cells; reference is medium of wt NTN transfected cells
[3] = target: GFRα2/Fc fusion protein (R&D Systems) (human); experiment: GFRα2 ELISA (GFRα2/Fc on anti-Fc plate, Ret-AP detection) on conditioned medium of transfected HiB5 cells; reference is medium of wt NTN transfected cells
[4] = target: GFRα2/Fc fusion protein (R&D Systems) (human); experiment: GFRα2 ELISA (GFRα2/Fc on anti-Fc plate, Ret-AP detection) on conditioned medium of transfected CHO cells; reference is medium of wt NTN transfected cells

fold higher NTN binding (relative GFRα2 binding activity, wt construct set to 1) [1]: 90 fold
fold higher NTN binding (relative GFRα2 binding activity, wt construct set to 1) [2]: 117 fold
fold higher NTN binding (relative GFRα2 binding activity, wt construct set to 1) [3]: 7.5 fold
fold higher NTN binding (relative GFRα2 binding activity, wt construct set to 1) [4]: 4.1 fold
B1: mature human Neurturin secreted from cells transfected with the dpro-NTN construct (deltapro102NTN) (ligand)
chain: ARLGARPCGLRELEVRVSELGLGYASDETVLFRYCAGACEAAARVYDLGLRRLRQRRRLRRERVRAQPCCRPTAYEDEVSFLDAHSRYHTVHELSARECACV

fold higher NTN binding (relative GFRα2 binding activity, wt construct set to 1) [1]: 278 fold
fold higher NTN binding (relative GFRα2 binding activity, wt construct set to 1) [2]: 771 fold
fold higher NTN binding (relative GFRα2 binding activity, wt construct set to 1) [3]: 162 fold
fold higher NTN binding (relative GFRα2 binding activity, wt construct set to 1) [4]: 66 fold
B2: mature human Neurturin secreted from cells transfected with the IgSP-NTN construct (IgSP-102NTN) (ligand)
chain: B1 chain
